Biological target: ActR-IIB extracellular domain (type II receptor ectodomain) (UniProt Q13705)
Test: SPR; Reichert4SPR; biotinylated receptor ectodomains immobilised on a streptavidin-coated CMD200 chip (350-500 RU); BMP2 ligands as analytes, six concentrations from 160 nM (log 2 dilution series); 25 °C; 10 mM HEPES pH 7.4, 500 mM NaCl, 3.4 mM EDTA, 0.005% Tween-20; 10 μL/min; 1:1 Langmuir global fit; apparent KD, mean of two independent experiments

Chain of UniProt Q13705 (Q13705 19-137): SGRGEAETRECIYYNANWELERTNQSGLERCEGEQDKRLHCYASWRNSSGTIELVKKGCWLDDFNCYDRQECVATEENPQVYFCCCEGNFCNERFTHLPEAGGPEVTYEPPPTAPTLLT

## BMP2 Azide (BMP2 variant with H-L-Lys(EO-N3)-OH at position 83 of each chain) (ligand)
  Kd: 11.6 nM

From PMC8999711
